Bounds are passed on as bounds.

In one assay the target is HLA-C*06:02. The experiment in a line: IEDB peptide-MHC binding, purified MHC/direct/fluorescence; filed as Kd, often an IC50 or EC50 that approximates it; ≥ and ≤ were set here for values at or beyond the usual limits of such assays.
Assay [1] has as its target HLA-B*18:01. Kind of assay: IEDB peptide-MHC binding, purified MHC/competitive/fluorescence; filed as Kd, often an IC50 or EC50 that approximates it; ≥ and ≤ were set here for values at or beyond the usual limits of such assays. Conditions: source organism: Encephalitozoon cuniculi GB-M1.
For the next assay, the target named is HLA-A*02:03. Described as above. Conditions: source organism: Encephalitozoon cuniculi GB-M1.
The next assay addresses HLA-A*02:12. The assay is described as above. Conditions: source organism: Encephalitozoon cuniculi GB-M1.
Another assay concerns the target HLA-A*02:19. Described as above. Conditions: source organism: Encephalitozoon cuniculi GB-M1.
Assay [2] addresses HLA-A*02:01. Described as above. Conditions: source organism: Encephalitozoon cuniculi GB-M1.
The next assay has as its target HLA-A*29:02. Described as above. Conditions: source organism: Encephalitozoon cuniculi GB-M1.
Another assay concerns the target HLA-A*24:03. Described as above. Conditions: source organism: Encephalitozoon cuniculi GB-M1.
For a further assay, the target named is HLA-B*57:01. The assay is described as above. Conditions: source organism: Encephalitozoon cuniculi GB-M1.
The target of assay [3] is HLA-A*03:01. Described as above. Conditions: source organism: Encephalitozoon cuniculi GB-M1.
Assay [4] deals with HLA-B*51:01. Described as above. Conditions: source organism: Encephalitozoon cuniculi GB-M1.
The target of assay [5] is HLA-B*15:01. Described as above. Conditions: source organism: Encephalitozoon cuniculi GB-M1.
The next assay deals with HLA-B*39:01. The assay is described as above. Conditions: source organism: Encephalitozoon cuniculi GB-M1.
The target in a further assay is HLA-B*46:01. Described as above.
A further assay deals with HLA-A*02:11. Described as above. Conditions: source organism: Encephalitozoon cuniculi GB-M1.
Assay [6] deals with HLA-A*26:01. The assay is described as above. Conditions: source organism: Encephalitozoon cuniculi GB-M1.
Another assay has as its target HLA-B*27:03. The description is as above. Conditions: source organism: Encephalitozoon cuniculi GB-M1.
Assay [7] addresses HLA-B*51:01. The experiment in a line: IEDB peptide-MHC binding, purified MHC/direct/fluorescence; filed as Kd, often an IC50 or EC50 that approximates it; ≥ and ≤ were set here for values at or beyond the usual limits of such assays. Conditions: source organism: Helicobacter pylori.
A further assay concerns the target HLA-B*15:42. The experiment in a line: IEDB peptide-MHC binding, purified MHC/competitive/fluorescence; filed as Kd, often an IC50 or EC50 that approximates it; ≥ and ≤ were set here for values at or beyond the usual limits of such assays.
The target in a further assay is HLA-B*83:01. Described as above.
In a further assay the target is HLA-B*45:06. Described as above.
The next assay deals with HLA-C*04:01. The assay is described as above.
For the next assay, the target named is HLA-A*24:02. The experiment in a line: IEDB peptide-MHC binding, purified MHC/competitive/fluorescence; ≥ and ≤ were set here for values at or beyond the usual limits of such assays.
The target of assay [8] is HLA-A*02:01. Described as above.
The target of assay [9] is HLA-B*07:02. Described as above.
The next assay concerns the target HLA-C*07:02. Kind of assay: IEDB peptide-MHC binding, purified MHC/direct/fluorescence; filed as Kd, often an IC50 or EC50 that approximates it; ≥ and ≤ were set here for values at or beyond the usual limits of such assays. Conditions: source organism: Escherichia coli O157:H7 str. EDL933.
The target in the next assay is HLA-B*08:01. Described as above. Conditions: source organism: Escherichia coli O157:H7.
For assay [10], the target named is HLA-A*02:01. The description is as above. Conditions: source organism: Escherichia coli O157:H7.
The target in a further assay is HLA-A*11:01. The assay is described as above. Conditions: source organism: Escherichia coli O157:H7.
For the next assay, the target named is HLA-A*01:01. The assay is described as above. Conditions: source organism: Escherichia coli O157:H7.
Assay [11] addresses HLA-A*03:01. The assay is described as above. Conditions: source organism: Escherichia coli O157:H7.
A further assay has as its target HLA-B*58:01. The description is as above. Conditions: source organism: Escherichia coli O157:H7.
Assay [12] has as its target HLA-B*15:01. The assay is described as above. Conditions: source organism: Escherichia coli O157:H7.
The target of another assay is HLA-A*31:01. The assay is described as above. Conditions: source organism: Escherichia coli O157:H7.
Assay [13] addresses HLA-B*07:02. The description is as above. Conditions: source organism: Escherichia coli O157:H7.
The target of the next assay is HLA-B*40:01. The assay is described as above.
The target of another assay is HLA-B*44:02. The description is as above. Conditions: source organism: Escherichia coli O157:H7.
Assay [14] deals with HLA-A*26:01. The description is as above. Conditions: source organism: Escherichia coli O157:H7.
The target in the next assay is HLA-A*69:01. The assay is described as above. Conditions: source organism: Escherichia coli O157:H7.
For another assay, the target named is HLA-B*27:05. The description is as above. Conditions: source organism: Escherichia coli O157:H7.
Assay [15] addresses HLA-B*18:01. Described as above. Conditions: source organism: Bordetella avium.
Another assay has as its target HLA-C*15:02. Described as above. Conditions: source organism: Burkholderia vietnamiensis G4.
For the next assay, the target named is HLA-C*14:02. The description is as above. Conditions: source organism: Burkholderia vietnamiensis G4.
For another assay, the target named is HLA-A*68:02. Kind of assay: IEDB peptide-MHC binding, purified MHC/competitive/fluorescence; filed as Kd, often an IC50 or EC50 that approximates it; ≥ and ≤ were set here for values at or beyond the usual limits of such assays. Conditions: source organism: Yersinia pestis Nepal516.
Setting [16] is: source organism: human gammaherpesvirus 4.
Where [17] appears, read: source organism: Helicobacter pylori 26695.
[18] abbreviates: source organism: Zaire ebolavirus.
[19] abbreviates: source organism: Burkholderia vietnamiensis G4.
[20] abbreviates: source organism: Yersinia pestis Nepal516.

By Kd is commonly meant the concentration at which binding is half-saturated. High values mean weaker binding, low ones tighter binding. In turn, RRVRRRVLV registered a Kd with HLA-C*06:02 (setting [16]) of 316 nM. This counts as sub-micromolar.
Regarding NLFEIEWEE, the dissociation constant (Kd) was no less than 20 µM in the assay with HLA-B*18:01 [1]; no less than 20 µM with HLA-A*02:03; 298 nM with HLA-A*02:12; no less than 20 µM in the assay with HLA-A*02:19; no less than 20 µM in the assay with HLA-A*02:01 [2]; no less than 20 µM with HLA-A*29:02. The Kd in the assay with HLA-A*24:03, with HLA-B*57:01, with HLA-A*03:01 [3], with HLA-B*51:01 [4], in the assay with HLA-B*15:01 [5] and in the assay with HLA-B*39:01 was no less than 20 µM each time. Further, the Kd was no less than 20000 nM in the assay with HLA-B*46:01 (source organism: Encephalitozoon cuniculi GB-M1), no less than 20 µM with HLA-A*02:11, no less than 20 µM with HLA-A*26:01 [6] and no less than 20 µM with HLA-B*27:03.
For FPIQDFPII, the Kd was 156 nM with HLA-B*51:01 [7]; no less than 5 µM in the assay with HLA-B*15:42 (setting [17]); 2.74 µM with HLA-B*83:01 (setting [17]); no less than 5 µM with HLA-B*45:06 (setting [17]); no less than 5 µM with HLA-C*04:01 (setting [17]).
The IC50 is the midpoint of a concentration-inhibition curve. Low readings indicate higher potency, high ones lower potency. RPVVLTGGT: the IC50 in the assay with HLA-A*24:02 (source organism: Variola virus) was 0.104 µM; with HLA-A*02:01 [8] (source organism: Variola virus), no less than 89.9 µM; in the assay with HLA-B*07:02 [9] (source organism: Variola virus) it was 24.1 µM.
As to ARLLNLSGV, the IC50 in the assay with HLA-A*24:02 (setting [18]) is 32.8 µM; in the assay with HLA-A*02:01 [8] (setting [18]), 9.98 µM; in the assay with HLA-B*07:02 [9] (setting [18]), no less than 152 µM.
In the case of RRNDVARIF, the Kd with HLA-C*07:02 is 41 nM; in the assay with HLA-B*08:01, 1900 nM; with HLA-C*06:02 (source organism: Escherichia coli O157:H7 str. EDL933), 22 nM; with HLA-A*02:01 [10], no less than 20 µM; in the assay with HLA-A*11:01, no less than 20 µM; in the assay with HLA-A*01:01, no less than 20 µM. The Kd with HLA-A*03:01 [11] was no less than 20 µM; with HLA-B*58:01 it was no less than 20 µM; in the assay with HLA-B*15:01 [12], no less than 20 µM; with HLA-A*31:01, no less than 20 µM; with HLA-B*07:02 [13], no less than 20 µM; in the assay with HLA-B*40:01 (source organism: Escherichia coli O157:H7) it was no less than 20000 nM. Further, the Kd is no less than 20 µM with HLA-B*44:02, no less than 20 µM with HLA-A*26:01 [14], no less than 20 µM with HLA-A*69:01 and 120 nM with HLA-B*27:05.
For the sequence WMRWGGWPF, the Kd is 4.66 µM in the assay with HLA-B*18:01 [15]; no less than 20000 nM in the assay with HLA-C*06:02 (setting [19]); no less than 20 µM in the assay with HLA-C*15:02; 4.72 µM in the assay with HLA-C*14:02; 512 nM with HLA-B*40:01 (source organism: Bordetella avium); no less than 5 µM with HLA-B*15:42 (setting [19]). For the same sequence, the Kd is no less than 5 µM in the assay with HLA-B*83:01 (setting [19]), no less than 5 µM with HLA-B*45:06 (setting [19]) and 418 nM with HLA-B*46:01 (setting [19]).
As for WEMRAGREI, the Kd with HLA-B*15:42 (setting [16]), with HLA-B*83:01 (setting [16]), with HLA-B*45:06 (setting [16]) and with HLA-C*04:01 (setting [16]) was no less than 5 µM in each case.
Consider MTHPQSEAA, for which the Kd in the assay with HLA-B*15:42 (setting [20]) was no less than 5 µM; with HLA-B*83:01 (setting [20]), no less than 5 µM; with HLA-C*04:01 (setting [20]), no less than 5 µM; with HLA-A*68:02, no more than 0.1 nM.

The record behind these values is the Immune Epitope Database (IEDB).
